# Reference: the supplement of paper PMC10598134
# ± gives the standard deviation.
# Assay: collision cross section of modified peptide (TIMS, N2, iRT-aligned); higher = larger / more extended gas-phase ion
# Procedure, shortened: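 On a timsTOF Pro/HT (dda-PASEF, nitrogen, ~2.4 mbar), synthetic peptide pools were analysed after a 120-min nanoflow C18 separation at 60 °C and identified in MaxQuant. Three reference ions served for 1/K0 calibration, with run-wise alignment to the median iRT peptide deviation. Collision cross section comes from the Mason-Schamp equation, using the most abundant feature per charge state averaged over 1–3 technical replicates.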
# [1] = charge state: 2, modification: Glutarylation
# [2] = charge state: 3, modification: Glutarylation
# [3] = charge state: 2, modification: GlyGly (K)
# [4] = charge state: 3, modification: GlyGly (K)
# [5] = charge state: 2, modification: Malonyl
# [6] = charge state: 2, modification: Methyl (K)
# [7] = charge state: 3, modification: Methyl (K)
# [8] = charge state: 2, modification: Succinyl
# [9] = charge state: 3, modification: Succinyl
# [10] = charge state: 2, modification: Trimethyl (K)
# [11] = charge state: 3, modification: Trimethyl (K)
# [12] = charge state: 2, modification: hydroxyisobutyryl
# [13] = charge state: 3, modification: hydroxyisobutyryl
# [14] = charge state: 2, modification: Hydroxyproline
# [15] = charge state: 3, modification: Hydroxyproline
# [16] = charge state: 2, modification: Acetyl (K)
# [17] = charge state: 3, modification: Acetyl (K)
# [18] = charge state: 2, modification: Butyryl
# [19] = charge state: 3, modification: Butyryl
# [20] = charge state: 2, modification: Crotonyl
# [21] = charge state: 3, modification: Crotonyl
# [22] = charge state: 3, modification: Dimethyl (K)
# [23] = charge state: 2, modification: Formyl
# [24] = charge state: 3, modification: Formyl
# [25] = charge state: 3, modification: Malonyl
# [26] = charge state: 2, modification: Citrullination (R)
# [27] = charge state: 2, modification: Methyl (R)
# [28] = charge state: 3, modification: Methyl (R)
substance,measurement,setting,value
VNVEAPDVNLEGLGGKLK [_VNVEAPDVNLEGLGGK(Gluratylation)LK_],collision cross section,[1],464.05 ± 2.1 Å²
same,collision cross section,[2],550.01 Å²
VNVEAPDVNLEGLGGKLK [_VNVEAPDVNLEGLGGK(GlyGly (K))LK_],collision cross section,[3],470.77 ± 1.4 Å²
same,collision cross section,[4],551.19 ± 1.1 Å²
VNVEAPDVNLEGLGGKLK [_VNVEAPDVNLEGLGGK(Malonyl)LK_],collision cross section,[5],463.09 ± 1.4 Å²
VNVEAPDVNLEGLGGKLK [_VNVEAPDVNLEGLGGK(Methyl (K))LK_],collision cross section,[6],464.13 ± 2.6 Å²
same,collision cross section,[7],541.64 ± 0.51 Å²
VNVEAPDVNLEGLGGKLK [_VNVEAPDVNLEGLGGK(Succinyl)LK_],collision cross section,[8],466.17 ± 1.4 Å²
same,collision cross section,[9],548.55 ± 1.1 Å²
VNVEAPDVNLEGLGGKLK [_VNVEAPDVNLEGLGGK(Trimethyl (K))LK_],collision cross section,[10],469.62 ± 0.99 Å²
same,collision cross section,[11],545.57 ± 1.8 Å²
VNVEAPDVNLEGLGGKLK [_VNVEAPDVNLEGLGGK(hydroxyisobutyryl)LK_],collision cross section,[12],461.55 ± 2 Å²
same,collision cross section,[13],550.67 ± 0.8 Å²
VPGALAAAKAAK [_VP(Hydroxyproline)GALAAAKAAK_],collision cross section,[14],368.8 ± 0.56 Å²
same,collision cross section,[15],444.57 ± 2.8 Å²
VPGVGLPGVYPGGVLPGAR [_VPGVGLPGVYPGGVLP(Hydroxyproline)GAR_],collision cross section,[14],432.24 ± 0.28 Å²
same,collision cross section,[15],534.68 ± 3 Å²
VPQAQPTKPALK [_VPQAQPT(HexNAc (ST))KPALK_],collision cross section,"charge state: 2, modification: HexNAc (ST)",409.35 ± 0.62 Å²
same,collision cross section,"charge state: 3, modification: HexNAc (ST)",481.8 ± 0.17 Å²
VPTTEKPTVTVNFR [_VPTTEK(Acetyl (K))PTVTVNFR_],collision cross section,[16],421.49 ± 1.9 Å²
same,collision cross section,[17],507.52 ± 1 Å²
VPTTEKPTVTVNFR [_VPTTEK(Butyryl)PTVTVNFR_],collision cross section,[18],428.57 ± 0.24 Å²
same,collision cross section,[19],508.36 ± 2.4 Å²
VPTTEKPTVTVNFR [_VPTTEK(Crotonyl)PTVTVNFR_],collision cross section,[20],427.61 ± 0.55 Å²
same,collision cross section,[21],510.39 Å²
VPTTEKPTVTVNFR [_VPTTEK(Dimethyl (K))PTVTVNFR_],collision cross section,[22],496.28 ± 1.7 Å²
VPTTEKPTVTVNFR [_VPTTEK(Formyl)PTVTVNFR_],collision cross section,[23],425.05 ± 5 Å²
same,collision cross section,[24],502.93 ± 1.3 Å²
VPTTEKPTVTVNFR [_VPTTEK(Gluratylation)PTVTVNFR_],collision cross section,[1],428.25 ± 0.47 Å²
same,collision cross section,[2],516.1 ± 2.5 Å²
VPTTEKPTVTVNFR [_VPTTEK(GlyGly (K))PTVTVNFR_],collision cross section,[3],431.31 ± 0.85 Å²
same,collision cross section,[4],523.98 ± 3.9 Å²
VPTTEKPTVTVNFR [_VPTTEK(Malonyl)PTVTVNFR_],collision cross section,[5],427.18 ± 3.1 Å²
same,collision cross section,[25],511.14 ± 0.89 Å²
VPTTEKPTVTVNFR [_VPTTEK(Methyl (K))PTVTVNFR_],collision cross section,[6],426.88 Å²
same,collision cross section,[7],510.49 ± 2 Å²
VPTTEKPTVTVNFR [_VPTTEK(Succinyl)PTVTVNFR_],collision cross section,[8],427.05 ± 0.52 Å²
same,collision cross section,[9],513.15 ± 2.5 Å²
VPTTEKPTVTVNFR [_VPTTEK(Trimethyl (K))PTVTVNFR_],collision cross section,[11],499.21 ± 1.6 Å²
VPTTEKPTVTVNFR [_VPTTEK(hydroxyisobutyryl)PTVTVNFR_],collision cross section,[12],429.55 ± 0.83 Å²
same,collision cross section,[13],512.54 ± 2 Å²
VQFAPEK [_VQFAP(Hydroxyproline)EK_],collision cross section,[14],316.39 ± 1.9 Å²
VQFAPEKPGPQPSAETTR [_VQFAPEKPGP(Hydroxyproline)QPSAETTR_],collision cross section,[15],515.21 ± 1.2 Å²
VQGGALEDSQLVAGVAFKK [_VQGGALEDSQLVAGVAFK(Acetyl (K))K_],collision cross section,[16],468.5 Å²
same,collision cross section,[17],554.41 Å²
VQGGALEDSQLVAGVAFKK [_VQGGALEDSQLVAGVAFK(Dimethyl (K))K_],collision cross section,[22],554.94 ± 0.79 Å²
VQGGALEDSQLVAGVAFKK [_VQGGALEDSQLVAGVAFK(Gluratylation)K_],collision cross section,[1],484.97 ± 2 Å²
same,collision cross section,[2],564.26 Å²
VQGGALEDSQLVAGVAFKK [_VQGGALEDSQLVAGVAFK(GlyGly (K))K_],collision cross section,[3],504.45 ± 0.061 Å²
same,collision cross section,[4],565.73 ± 1.7 Å²
VQGGALEDSQLVAGVAFKK [_VQGGALEDSQLVAGVAFK(Methyl (K))K_],collision cross section,[6],497.72 Å²
same,collision cross section,[7],546.3 ± 1.2 Å²
VQGGALEDSQLVAGVAFKK [_VQGGALEDSQLVAGVAFK(Succinyl)K_],collision cross section,[8],480.13 ± 1.2 Å²
VQGGALEDSQLVAGVAFKK [_VQGGALEDSQLVAGVAFK(Trimethyl (K))K_],collision cross section,[10],515.46 ± 1.1 Å²
same,collision cross section,[11],564.46 ± 0.92 Å²
VQGGALEDSQLVAGVAFKK [_VQGGALEDSQLVAGVAFK(hydroxyisobutyryl)K_],collision cross section,[12],481.48 Å²
same,collision cross section,[13],565.17 ± 3.4 Å²
VRFHNPR [_VR(Citrullination (R))FHNPR_],collision cross section,[26],325.95 ± 14 Å²
same,collision cross section,"charge state: 3, modification: Citrullination (R)",406.17 Å²
VRFHNPR [_VR(Methyl (R))FHNPR_],collision cross section,[27],340.13 ± 1.8 Å²
same,collision cross section,[28],406.89 ± 0.36 Å²
VRLQTTLR [_VR(Citrullination (R))LQTTLR_],collision cross section,[26],344.05 ± 1.2 Å²
VRLQTTLR [_VR(Methyl (R))LQTTLR_],collision cross section,[27],349.69 ± 0.95 Å²
same,collision cross section,[28],439.94 ± 4.3 Å²
VSFLSALEEYTK [_VSFLSALEEY(Nitro (Y))TK_],collision cross section,"charge state: 2, modification: Nitro (Y)",400.94 ± 0.73 Å²
VSPASSVDSNIPSSQGYKK [_VSPASSVDSNIPSSQGYK(Acetyl (K))K_],collision cross section,[16],458.38 ± 2.6 Å²
same,collision cross section,[17],553.13 ± 0.49 Å²
VSPASSVDSNIPSSQGYKK [_VSPASSVDSNIPSSQGYK(Biotin)K_],collision cross section,"charge state: 2, modification: Biotin",474.43 Å²
same,collision cross section,"charge state: 3, modification: Biotin",539.94 ± 1.6 Å²
VSPASSVDSNIPSSQGYKK [_VSPASSVDSNIPSSQGYK(Butyryl)K_],collision cross section,[18],463.23 ± 2.7 Å²
same,collision cross section,[19],559.88 ± 1.1 Å²
VSPASSVDSNIPSSQGYKK [_VSPASSVDSNIPSSQGYK(Crotonyl)K_],collision cross section,[20],464.78 ± 0.82 Å²
same,collision cross section,[21],560.75 ± 1.6 Å²
VSPASSVDSNIPSSQGYKK [_VSPASSVDSNIPSSQGYK(Dimethyl (K))K_],collision cross section,[22],536.37 ± 0.42 Å²
VSPASSVDSNIPSSQGYKK [_VSPASSVDSNIPSSQGYK(Formyl)K_],collision cross section,[23],457.96 ± 0.14 Å²
same,collision cross section,[24],550.3 ± 3 Å²
VSPASSVDSNIPSSQGYKK [_VSPASSVDSNIPSSQGYK(Gluratylation)K_],collision cross section,[1],466.49 ± 3 Å²
same,collision cross section,[2],552.93 ± 0.14 Å²
VSPASSVDSNIPSSQGYKK [_VSPASSVDSNIPSSQGYK(GlyGly (K))K_],collision cross section,[3],469.54 ± 1.4 Å²
same,collision cross section,[4],521.06 ± 4.6 Å²
VSPASSVDSNIPSSQGYKK [_VSPASSVDSNIPSSQGYK(Malonyl)K_],collision cross section,[5],465.75 ± 0.51 Å²
same,collision cross section,[25],526.18 ± 21 Å²
VSPASSVDSNIPSSQGYKK [_VSPASSVDSNIPSSQGYK(Methyl (K))K_],collision cross section,[6],486.85 ± 1.2 Å²
same,collision cross section,[7],544.11 ± 0.42 Å²
VSPASSVDSNIPSSQGYKK [_VSPASSVDSNIPSSQGYK(Propionyl)K_],collision cross section,"charge state: 3, modification: Propionyl",557.31 Å²
